The source of these data is US20230067757A1.

Test [1] concerns the target human claudin 18 isoform 2 (claudin 18.2) (human). In words: cell-based or functional assay.
Test [2] shares this target. The experiment in a line: immunofluorescence imaging, CHO-CLDN18.2 cells (FIG. 3B).
Test [3] shares this target. The experiment in a line: immunofluorescence imaging on CHO-Claudin18.2 cells, serial dilution of antibody; table drawn under the curves (run with Hu-2, Hu-9, Hu-10).

Chain of PC1 (in-house positive control CLDN18.2-specific antibody zolbetuximab) (VH): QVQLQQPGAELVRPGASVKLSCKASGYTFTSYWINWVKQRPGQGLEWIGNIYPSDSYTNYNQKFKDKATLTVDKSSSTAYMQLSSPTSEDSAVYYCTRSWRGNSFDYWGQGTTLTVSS
Chain of PC1 (in-house positive control CLDN18.2-specific antibody zolbetuximab) (VL): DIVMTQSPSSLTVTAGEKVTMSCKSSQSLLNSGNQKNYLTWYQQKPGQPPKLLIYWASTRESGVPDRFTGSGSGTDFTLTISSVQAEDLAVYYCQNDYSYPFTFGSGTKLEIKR

Usually EC50 stands for the concentration giving half of the maximal effect. Low readings indicate a more potent agent, high ones a less potent agent. In test [1], “PC1 (in-house positive control CLDN18.2-specific antibody zolbetuximab)” returned an ADCC EC50, similar assay with human effector cells (data not shown) of 0.66 nM. Moreover, the EC50 in test [2] and in test [3] was 3.2 nM throughout.
